Target: murine Axl receptor tyrosine kinase on precursor natural killer (pNK) cells (mouse) (UniProt Q00993)
Assay: cell-based or functional assay

Chain of UniProt Q00993 (Q00993 19-888): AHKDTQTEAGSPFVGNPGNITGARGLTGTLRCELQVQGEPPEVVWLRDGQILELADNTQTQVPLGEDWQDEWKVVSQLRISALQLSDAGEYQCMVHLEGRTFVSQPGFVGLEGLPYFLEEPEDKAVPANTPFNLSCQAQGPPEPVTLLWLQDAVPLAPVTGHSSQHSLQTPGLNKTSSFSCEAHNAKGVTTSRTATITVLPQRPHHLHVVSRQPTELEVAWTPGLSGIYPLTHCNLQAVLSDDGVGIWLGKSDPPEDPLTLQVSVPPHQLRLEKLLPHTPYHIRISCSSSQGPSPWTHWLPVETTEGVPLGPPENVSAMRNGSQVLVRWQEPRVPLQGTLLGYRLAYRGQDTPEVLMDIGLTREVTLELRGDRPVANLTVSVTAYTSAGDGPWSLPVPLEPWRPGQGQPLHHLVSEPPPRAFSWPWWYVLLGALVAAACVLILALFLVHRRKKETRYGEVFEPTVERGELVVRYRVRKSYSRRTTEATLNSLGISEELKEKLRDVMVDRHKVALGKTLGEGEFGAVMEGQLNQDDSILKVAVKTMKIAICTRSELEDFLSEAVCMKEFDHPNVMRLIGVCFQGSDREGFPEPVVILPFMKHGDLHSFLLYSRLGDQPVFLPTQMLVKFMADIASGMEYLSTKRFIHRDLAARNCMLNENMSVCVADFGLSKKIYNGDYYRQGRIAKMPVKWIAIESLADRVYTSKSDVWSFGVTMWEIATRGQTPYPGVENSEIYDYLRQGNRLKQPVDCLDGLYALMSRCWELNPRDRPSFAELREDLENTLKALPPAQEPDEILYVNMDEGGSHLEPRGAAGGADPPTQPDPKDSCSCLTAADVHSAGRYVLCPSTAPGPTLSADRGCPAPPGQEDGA

murine Gas6 protein secreted from the murine Gas6 transfectant (NIH3T3 transfected with pcDNA3.1-Gas6) (from UniProt Q61592 28-674) (ligand)
degree of differentiation of pNK cells into mNK cells (FACS), co-culture with murine Gas6 transfectant against control groups: 47%
